The target of assay [1] is biotinylated Arr3_ΔC loaded with IP6 (bovine) (UniProt P32120). As to the kind of experiment: SEC.
The target of assay [2] is biotinylated Arr3_ΔC loaded with IP6 (bovine, UniProt P32120, biotin (sulfo-NHS-Biotin, >95% biotinylated)). In words: ELISA. For orientation: In an ELISA, binding on a coated surface is turned into a signal by an enzyme label.
The target of assay [3] is Arr3_ΔC (preactivated arrestin3, truncated after residue 392) (bovine, UniProt P32120). As to the kind of experiment: pull-down.

With “biotinylated Arr3_ΔC loaded with IP6 (from UniProt P32120 1-392) (domain or fragment)”, the stoichiometry N – broadly, the number of molecules, sites or subunits per partner or assembly – in assay [1] turned out to be 3.

B1: Fab7 (Fab, V domains shown)
VH: EVQLVESGGGLVQPGGSLRLSCAASGFNVSSSYIHWVRQAPGKGLEWVASISSYYGYTYYADSVKGRFTISADTSKNTAYLQMNSLRAEDTAVYYCARKSMYHRGWGWLSWVYGAMDYWGQGTLVTVSS
VL: DIQMTQSPSSLSASVGDRVTITCRASQSVSSAVAWYQQKPGKAPKLLIYSASSLYSGVPSRFSGSRSGTDFTLTISSLQPEDFATYYCQQSYYYPITFGQGTKVEIK
For B1, the binding result in assay [2] and in assay [3] was “binds” throughout.

(Values after PMC10370059 (bioRxiv, 2023).)
